Data from US20240252641A1 (TCR2 THERAPEUTICS, published 2024).
Changes are numbered by the printed parent chain.

T1: CD70 on cells (CHO-CD70, JVM-3, U266, Raji, THP-1, T cells) (human, UniProt P32970 1-193)
T1 construct: whole, on cells; also called cell-surface CD70
T1 sequence (looked up): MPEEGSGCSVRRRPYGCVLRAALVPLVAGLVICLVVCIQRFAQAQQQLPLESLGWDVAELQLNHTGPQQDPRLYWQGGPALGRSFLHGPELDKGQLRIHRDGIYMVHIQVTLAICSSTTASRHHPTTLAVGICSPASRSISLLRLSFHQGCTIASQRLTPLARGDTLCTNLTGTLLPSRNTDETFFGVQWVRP

T2: human CD70, recombinant, N-terminally biotinylated (residues 39-193) (human, UniProt P32970 39-193, N-terminal biotin)
T2 construct: range 39-193; the same entry is used there; also called biotinylated human CD70; CD70 biotin
T2 sequence (looked up): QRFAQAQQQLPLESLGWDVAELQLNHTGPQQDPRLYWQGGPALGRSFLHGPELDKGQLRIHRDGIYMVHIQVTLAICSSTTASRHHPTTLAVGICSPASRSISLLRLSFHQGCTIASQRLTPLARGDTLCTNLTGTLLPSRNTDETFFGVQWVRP

T3: CD70 (UniProt P32970 39-193, limits assumed)
T3 construct: also called CD70 (100 nM)
T3 sequence (looked up): T2 sequence (looked up)

B1: 1E3 (antibody, V domains shown)
VH: QLQLQESGPGLVKPSETLSLTCTVSGASITSTSYYWNWIRQPPGKGLEWIGRISYSGSTYYNPSLKSRVTISVDTSKNQFSLKLSSVTATDTAVYYCARQIRYNWNPDTFDIWGQGTMVTVSS
VL: EIVMTQSPATLSVSPGERATLSCRASQSLNSNLAWYQQKPAQAPRLLIYGASTRATGIPARFSGSGSGTEFTLTISSLQSEDFAVYYCQQYDNWPLTFGGGTKVEIK
notes: alloy mouse hybridoma antibody; also called 1E3D9
B2: 9B2 (antibody, V domains shown)
VH: QLQVVESGGGLMQPGGSLRLSCAASGFTFSGSAMSWVRQAPGKGLEWVSSIYSHSMYTYYADSVKSRFTISTDNAKNTLYLQMNSLKPDDTAVYYCAASSDYEGLFVSWGQGTQVTVSS
VL: QAVLTQPPSLSASPGSSVRLTCTLNSANSVGSYDISWYQQKAGSPPRYLLYYYSDSLSHQGSGVPSRFSGSTDASANAGLLLISGLQPEDEADYYCSAYNRGSHVFGGGTKLTVL
B3: 15F8 (antibody, V domains shown)
VH: EVQLVESGGGVVRPGGSLRLSCAASGFTFDDYGVSWVRQAPGRGLEWVSGINWNGGSTAYADSVKGRFTISRDSAKNSLYLQMDSLRAEDTALYYCAREEGSYYVWYFDIWGRGTLVTVSS
VL: DIQMTQSPSSLSASVGDRVTITCRPSQSISNYLNWYQQKPGKAPKVLIYASFILQSGVPSRFGGSGSGTDFTLTISSLQPEDFATYYCQQSYSNPFTFGPGTKVDIK
notes: alloy mouse hybridoma antibody; also called 15F8D8; 15F8D9
B4: 2F1 (antibody, V domains shown)
VH: EVQLVESGGVVVQPGGSLRLSCAASGFTFDDYTMHWVRQAPGKGLEWVSLVSWDGGSTYYADSVKGRFTTSRDNSKKFLYLQMNRLRTEDTALYFCAIDRAYRPYYYYHMDVWGKGTTVTVSS
VL: not shown
notes: alloy mouse hybridoma antibody; also called 2F1F7
B5: 4G7 (antibody, V domains shown)
VH: QVQLVESGGGVVQPGRSLRLSCAASGFTFSSYGLHWVRQAPGKGLDWVAVIWYDGSNKYYVDSVKGRFTISRDNSMNTLFLQMNSLRAEDTAVYYCARDEAAAAGAFDIWGQGTMVTVSS
VL: DIQLTQSPSFLSASVGDRVTITCRASQGISSYLAWYQQKPGKAPKLLIYAASTLQSGVPSRFSGSGSGTEFTLTISSLQPEDFATYYCQQLNYYSITFGQGTRLEIK
notes: alloy mouse hybridoma antibody; also called 4G7E8
B6: R3P3H12 VHH (VHH)
VHH: QVQLQESGGGLVQTGGSLRLSCTASGSIFDIVRGSWYRQAPGNQRELVAIITSGGATNYADSVAGRFTISRDSAWKALYLQMNSLKPEDTAVYFCNMESVRYRNYWGQGTQVTVSS
notes: tested as VHH-His
B7: 1E3 (1E3D9) (antibody, V domains shown)
VH: B1 VH
VL: B1 VL
notes: IgG in hybridoma supernatant
B8: 9A1 (9A1H6) (antibody, V domains shown)
VH: QVQLVQSGAEVKKPGASVKVSCKASGYSFTGYYMHWVRQAPGQGLEWMGWINPKSGGTSYAQQFQGRVTMTRDTSMSTVYMELTRLRADDTAVYYCARLYYSGWYGDYWGQGTLVTVSS
VL: DIQMTQSPSSLSASVGDRVTITCQASQDINNYLNWYQQKPGKVPNLLIYDASNLETGVPSRFSGSGSGTDFTFTISSLQPEDIATYYCQQYNNPPITFGQGTRLEIK
notes: IgG in hybridoma supernatant
B9: 15F8 (15F8D8) (antibody, V domains shown)
VH: B3 VH
VL: B3 VL
notes: IgG in hybridoma supernatant; also called 15F8D9
B10: 2F1 (2F1F7) (antibody, V domains shown)
VH: B4 VH
VL: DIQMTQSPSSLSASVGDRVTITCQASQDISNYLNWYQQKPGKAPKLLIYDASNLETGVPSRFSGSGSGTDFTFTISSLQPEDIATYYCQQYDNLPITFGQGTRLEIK
notes: IgG in hybridoma supernatant; The variable domains exist only inside scFv entries 1215/1216
B11: 9A11 (9A11E8) (antibody, V domains shown)
VH: QVQLVESGGGVVQPGRSLRLSCAASGFTFSNYGMYWVRQAPGKGLEWVAVIWYDGSKKYYGDSVKGRFTISRDNSKNTLYLQMNSLRAEDTAVYYCARDEDTVMASFDYWGQGTLVTVSS
VL: B5 VL with G28D, S31I, K45Q, Y87S, Y93S, S95P, Q100G, R103K, L104V
notes: IgG in hybridoma supernatant
B12: 13G6 (antibody, V domains shown)
VH: QVQLVESGGGVVQPGKSLRLSCAASGFTFSNYGIHWVRQAPGKGLEWVAVIWYDGSYKYYADSVKGRFTISRDNSKNTLYLQMNSLRAEDTALYYCARDTVDTYGSFDYWGQGTLVTVSS
VL: B5 VL with C23G, K45N, L91H, Y93R, S95P
notes: IgG in hybridoma supernatant; also called 13G6E8
B13: 4G7 (4G7E8) (antibody, V domains shown)
VH: B5 VH
VL: B5 VL
notes: IgG in hybridoma supernatant; The variable domains exist only inside scFv entries 1213/1214
B14: R3P15F6 VHH (VHH)
VHH: QVQLQESGGGLVQPGGSLRLSCVASGFTLDKYAIGWFRQAPGKELEGVSCITSSSGVVKYADSVKGRFIISRDNTNNRAFLQMSSLKPEDTAVYYCAAAGPPDDCSVPGYYGLNYWGKGTQVTVSS
B15: R2P14A12 VHH (VHH)
VHH: QVQLQESGGGLVQPGGSLRLSCVASGFTLDRYAVGWFRQAPGKELEGVSCISSSGDIIKYADSAKGRFTIARDNAKNTAYLQMNSLKPEDTAVYYCTAADPKDDCSVPGYYGLNYWGKGTQVTVSS
notes: tested as VHH-His
B16: R3aP4D6 VHH (VHH)
VHH: QVQLQESGGGLVQAGGSLRLSCAASKSIIRDNVMAWHRQAPGKQRELVAIINTGGSANVDDSVKGRFTISRDNAKNMVYLQMNNLKPEDTAVYYCNVYYRDLWGQGTQVTVSS

These binders were tested against T1, CD70 on cells (CHO-CD70, JVM-3, U266, …) (assay: on JVM-3 cells).

| cell binding | Binder |
| --- | --- |
| 121000 | B1 |
| 8940 | B2 |
| 234000 | B3 |
| 31600 | B4 |
| 322000 | B5 |

These binders were tested against T1, CD70 on cells (CHO-CD70, JVM-3, U266, …) (assay: on Raji cells).

| cell binding | Binder |
| --- | --- |
| 38800 | B1 |
| 7310 | B2 |
| 85100 | B3 |
| 12100 | B4 |
| 103000 | B5 |

What follows are binders tested against T1, CD70 on cells (CHO-CD70, JVM-3, U266, …) (assay: on U266 cells).

| cell binding | Binder |
| --- | --- |
| 106000 | B1 |
| 8040 | B2 |
| 213000 | B3 |
| 30600 | B4 |
| 310000 | B5 |

Each binder was assayed against T2, human CD70, recombinant, N-terminally … (assay: BLI, biotinylated CD70 on streptavidin sensors, 400 nM analyte).
Method: Bio-layer interferometry was used to measure the binding affinity of CD70 to CD70-targeted antibodies 41D12, R3P3H12, R3P5A1, R3aP3E8, and R3aP9D10, and human CD27 fused to human Fc domain (CD27-Fc; Acro Biosystems cat. CD7-h5254). […] Following CD70 immobilization, biosensors were immersed in Octet Buffer to remove unbound, biotinylated CD70 and to establish a flat baseline sensor signal. CD70-loaded Biosensors were then transferred to Octet buffer containing 400 nM of CD27-Fc or αCD70 antibody and association was monitored for 5 minutes at 30° C. whilst agitating at 1,000 RPM. An scFv fragment derived from humanized llama αCD70 antibody 41D12 and fused to human Fc (41D12-Fc) served as a positive control for CD70 binding and an αLysozyme single-domain camelid antibody (clone D2-L19) was used as a negative control. CD27-Fc or αCD70 antibody dissociation was initiated by transferring sensors to Octet buffer and monitored for 5 minutes. Data were analyzed using ForteBio Data Analysis Suite 9.0. The observed association (kₒₙ) and dissociation (koff) rates for the binding of single-domain antibodies to CD70 were determined using a 1:1 curve fitting model to obtain, in all cases, R²≥0.95. Values of the equilibrium dissociation constant for binding to CD70, KD, were determined from the ratio of koff and kₒₙ.

| binding result | Binder |
| --- | --- |
| binds | B6 |

What follows are binders tested against T3, CD70 (assay: Octet (BLI); hybridoma mAb, CD70 at 100 nM).

| Kd [pM] | Response | koff [s⁻¹] | kon [M⁻¹ s⁻¹] | Binder |
| --- | --- | --- | --- | --- |
| 255 | 0.506 | 3.88e-05 | 152000 | B7 |
| 6.03 | 0.434 | 5.28e-07 | 87500 | B8 |
| 4.81 | 0.382 | 3.36e-07 | 69800 | B9 |
| 6600 | 0.698 | 0.000555 | 84100 | B10 |
| 2.46 | 0.429 | 3.36e-07 | 137000 | B11 |
| 3.42 | 0.409 | 3.3e-07 | 96400 | B12 |
| 1280 | 0.357 | 0.000167 | 130000 | B13 |

Each binder was assayed against T1, CD70 on cells (CHO-CD70, JVM-3, U266, …) (assay: binding to CD70-expressing CHO cells with and without CD27-Fc).
In short: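 Anti-CD70 antibodies and CD27-Fc were applied to CHO cells with CD70 attached to the cell surface, in four set-ups. Each was applied alone; antibody was premixed with CD27-Fc; or cells were first coated with CD27-Fc or with antibody, washed, and then given the mixture. The binding signal was then measured in each set-up.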

| binding result | Binder |
| --- | --- |
| binds | B14 |
| binds | B15 |
| binds | B16 |
| binds | B6 |

The binders below were run against T3, CD70 (assay: Octet (BLI); mAb binding to CD70 with CD27 (competitor CD27)).

| CD27:CD70 Interaction Neutralization of mAb Binding | Binder |
| --- | --- |
| 0.102 | B7 |
| 0.0553 | B8 |
| 0.0349 | B9 |
| 0.0275 | B10 |
| 0.0777 | B11 |
| 0.0585 | B12 |
| 0.0429 | B13 |
